From paper PMC10770723 (2023)

Biological target: T1, recombinant Der p 2 (Dermatophagoides pteronyssinus …, UniProt P49278)
T1 chain: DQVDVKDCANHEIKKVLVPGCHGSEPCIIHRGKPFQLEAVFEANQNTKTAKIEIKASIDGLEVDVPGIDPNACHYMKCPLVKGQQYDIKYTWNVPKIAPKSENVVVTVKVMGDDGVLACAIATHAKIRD
Assay: ELISA (coated rDer p 2, Siglec-Fc binding); Unmodified rDer p 2 does not bind; binding to Siglec-9-Fc requires chemical conjugation of α2-3 sialic acids to rDer p 2 (sia-rDer p 2)

binding result: no binding
B1: Siglec-9–hFc chimera (protein)
chain: QTSKLLTMQSSVTVQEGLCVHVPCSFSYPSHGWIYPGPVVHGYWFREGANTDQDAPVATNNPARAVWEETRDRFHLLGDPHTKNCTLSIRDARRSDAGRYFFRMEKGSIKWNYKHHRLSVNVTALTHRPNILIPGTLESGCPQNLTCSVPWACEQGTPPMISWIGTSVSPLDPSTTRSSVLTLIPQPQDHGTSLTCQVTFPGASVTTNKTVHLNVSYPPQNLTMTVFQGDGTVSTVLGNGSSLSLPEGQSLRLVCAVDAVDSNPPARLSLSWRGLTLCPSQPSNPGVLELPWVHLRDAAEFTCRAQNPLGSQQVYLNVSLQSKATSGVTQG
